Test results from patent US20220267421A1 (INVOX PHARMA, published 2022).
Changes are numbered by the printed parent chain.

B1: FS22-053-008-AA/FS28-026 mAb^2 (bispecific antibody, human IgG1, kappa, L234A L235A, V domains shown)
VH: EVQLLESGGGLVQPGGSLRLSCAASGFTFSNYAMTWVRQAPGKGLEWVSSITPYYSKTDYADSVKGRFTISRDNSKNTLYLQMNSLRAEDTAVYYCARNWYRFDYWGQGTLVTVSS
VL: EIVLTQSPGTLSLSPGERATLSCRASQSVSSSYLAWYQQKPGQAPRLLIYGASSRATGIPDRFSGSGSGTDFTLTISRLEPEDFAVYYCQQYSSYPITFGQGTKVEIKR
notes: also called FS28-026 (in mAb^2 format)
B2: FS22-053-008-AA/FS28-091 mAb^2 (bispecific antibody, human IgG1, kappa, L234A L235A, V domains shown)
VH: B1 VH with S30T, T35S, T52K, Y55D, S56G, K57N, D59Y, W100R, Y101W, R102V
VL: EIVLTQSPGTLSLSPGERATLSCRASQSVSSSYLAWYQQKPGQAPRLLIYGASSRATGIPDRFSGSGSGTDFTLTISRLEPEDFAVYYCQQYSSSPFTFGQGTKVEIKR
notes: also called FS28-091 (in mAb^2 format)
B3: FS22-053-008-AA/FS28-024-051 mAb^2 (bispecific antibody, human IgG1, kappa, L234A L235A, V domains shown)
VH: EVQLLESGGGLVQPGGSLRLSCAASGFTLSYSSMSWVRQAPGKGLEWVSFITPSTGYTHYADSVKGRFTISRDNSKNTLYLQMNSLRAEDTAVYYCARRALIFDYWGQGTLVTVSS
VL: EIVLTQSPGTLSLSPGERATLSCRASQSVSSSYLAWYQQKPGQAPRLLIYGASSRATGIPDRFSGSGSGTDFTLTISRLEPEDFAVYYCQQASSYPLTFGQGTKVEIKR
notes: also called FS28-024-51
B4: FS22-053-008-AA/FS28-256 (bispecific antibody, human IgG1, kappa, L234A L235A, V domains shown)
VH: EVQLLESGGGLVQPGGSLRLSCAASGFTFTNTYMSWVRQAPGKGLEWVSNISPTYSTTNYADSVKGRFTISRDNSKNTLYLQMNSLRAEDTAVYYCARYNSYQGGLDYWGQGTLVTVSS
VL: B3 VL with A92S, S93Y, S94Y, L97I
B5: FS22-053-008-AA/FS28-024-052 mAb^2 (bispecific antibody, human IgG1, kappa, L234A L235A, V domains shown)
VH: B3 VH with I102L
VL: B3 VL
notes: also called FS28-024-52
B6: FS22-053-008-AA/FS28-024-060 mAb^2 (bispecific antibody, human IgG1, kappa, L234A L235A, V domains shown)
VH: B3 VH with I102W
VL: B3 VL
B7: FS22-053-008-AA/FS28-256-001 mAb^2 (bispecific antibody, human IgG1, kappa, L234A L235A, V domains shown)
VH: B4 VH with N31E
VL: B3 VL with A92H, S93N, S94Q, L97N
B8: FS22-053-008-AA/FS28-256-005 mAb^2 (bispecific antibody, human IgG1, kappa, L234A L235A, V domains shown)
VH: B4 VH with N31E
VL: B3 VL with S93L, S94G, L97H
B9: FS22-053-008-AA/FS28-256-018 mAb^2 (bispecific antibody, human IgG1, kappa, L234A L235A, V domains shown)
VH: B4 VH with N31Q, S101A, G104I
VL: B3 VL with A92S, S93Y, S94Y, L97I
B10: FS22-053-008-AA/FS28-256-014 mAb^2 (bispecific antibody, human IgG1, kappa, L234A L235A, V domains shown)
VH: B4 VH with N31D, S101A, Q103A, G104A
VL: B3 VL with A92S, S93Y, S94Y, L97I
B11: FS22-053-008-AA/FS28-024-053 mAb^2 (bispecific antibody, human IgG1, kappa, L234A L235A, V domains shown)
VH: B3 VH with I102V
VL: B3 VL
notes: also called FS28-024-53

Experiments:
[1] = biological target: T1, cell surface human mesothelin (MSLN) (human, UniProt Q13421 296-598); experiment: flow cytometry, NCI-H226 cells + 20 nM soluble MSLN
T1 construct: whole, on cells; also called cell surface MSLN
T1 sequence (Q13421 other isoform, or with tags, fused parts or gaps limits assumed): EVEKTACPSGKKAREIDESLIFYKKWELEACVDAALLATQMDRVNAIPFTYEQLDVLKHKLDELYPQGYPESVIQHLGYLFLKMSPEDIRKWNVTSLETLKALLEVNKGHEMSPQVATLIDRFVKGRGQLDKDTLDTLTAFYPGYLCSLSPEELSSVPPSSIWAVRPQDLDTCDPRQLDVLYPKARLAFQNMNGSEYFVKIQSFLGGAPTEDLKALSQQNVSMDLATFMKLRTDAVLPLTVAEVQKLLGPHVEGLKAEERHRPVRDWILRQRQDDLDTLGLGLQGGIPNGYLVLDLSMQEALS
Experimental: (§1) Cells were centrifuged at 1200 rpm for 3 min and resuspended in ice cold FACS buffer made up of DPBS (Life Technologies, 14190169) and 1% BSA (Sigma-Aldrich, A7906) at 2×10⁶ cells/ml and 50 μl per well was seeded in a 96-well V-bottom plate (Costar, 3894). All mAbs tested were diluted in FACS buffer in 120 μl at a concentration range of 0.01-200 nM (4-fold dilutions). The NCI-H226 cells were then centrifuged, supernatant removed and cells resuspended in 100 μl of each mAb dilution and incubated at 4° C. for 45 min. Cells were washed twice by centrifugation with 150 μl FACS buffer, resuspended in 100 μl containing goat anti-human IgG (γ-chain specific) F(ab′)2 fragment-R-Phycoerythrin antibody (Sigma, P8047) diluted 1:1000 in FACS buffer and incubated at 4° C. for 45 min. The cells were washed once with 150 μl FACS buffer and then with 150 μl DPBS, resuspended in 150 μl DPBS containing DAPI (Biotium, 40043) at 1:10.000 and read on the BDCantoll or iQue (Intellicyt). Data was analysed using FlowJo v10 to determine the signal geometric mean for PE for live cells in each well.
(§2) Cell binding assays using OVCAR-3 cells were performed similarly to the assays described in section 2.4. The effect of the presence of soluble MSLN was tested by pre-incubating the antibodies in the presence or absence of soluble MSLN before mixing with cells and determining if the pre-incubation affected binding to MSLN on the cell surface. […] 60 μl from each well was then added to either FACS buffer alone or to FACS buffer containing 60 μl of 40 nM recombinant hMSLN (R&D systems, 3265-MS-050) (to give a final concentration of 20 nM hMSLN) and pre-incubated at room temperature for 1 hour before 100 μl was added to the cells. Bound antibody was detected using goat anti-human anti-Fcγ Alexa-Fluor 488 (Jackson Immunoresearch, 109-546-098).
(§3) The method used was exactly as described in section 3.1.4.

cynomolgus MSLN-His-Avi = biological target: T2, cynomolgus MSLN-His-Avi (cynomolgus, single biotin (BirA) in the biotinylated form); experiment: SPR (Biacore), mAb^2 captured on Protein G, MSLN in solution injected
T2 construct: Monomeric, made in HEK293-6E; also called cMSLN-His-Avi; cyno MSLN-His-Avi
T2 chain: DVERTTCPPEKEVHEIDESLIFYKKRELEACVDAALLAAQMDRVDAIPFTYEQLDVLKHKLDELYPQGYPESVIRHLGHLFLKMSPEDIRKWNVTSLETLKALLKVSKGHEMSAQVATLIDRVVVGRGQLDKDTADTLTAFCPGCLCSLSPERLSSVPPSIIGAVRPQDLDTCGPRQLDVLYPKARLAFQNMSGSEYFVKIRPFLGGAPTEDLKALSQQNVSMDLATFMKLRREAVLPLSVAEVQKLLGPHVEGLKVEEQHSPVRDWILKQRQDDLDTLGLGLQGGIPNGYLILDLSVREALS
Experimental: (§4) Binding of the selected anti-MSLN clones in mAb² format, to recombinant human and cyno MSLN-His-Avi antigen was measured by SPR using a Biacore T200 processing unit (GE Healthcare). As previously described, it was desirable to bind more strongly to immobilised antigen than to soluble antigen. To assess the binding properties of the clones, binding kinetics to immobilised MSLN antigen were determined as described in section 2.1.2 and compared to the kinetics obtained when MSLN antigens in solution bound to captured clones.
(§5) For the capture experiments, clones in mAb² format were captured using a BIAcore sensor series S chip Protein G (GE Healthcare, 29179315). mAb² diluted in HBS-EP buffer (GE Healthcare, BR100188) containing 900 mM […] at 1 μg/ml, were injected individually on flow cell 2, 3 and 4 at 30 μl/min to achieve a response of approximately 100 RU. G1-AA/HeID1.3 was captured on flow cell 1. The recombinant human and cyno MSLN-His-Avi (section 1.1), diluted in HBS-EP buffer containing 900 mM […], were injected on flow cell 1, 2, 3 or 4 as appropriate at a concentration range of 1000 nM to 0.051 nM with 3-fold dilutions for 5 minutes at 70 μl/min and then allowed to dissociate in buffer for 5 minutes. Regeneration was achieved by injecting 10 mM glycine pH1.5 (GE Healthcare, BR100354) and surfactant P20 (GE Healthcare, BR-1000-54) for 20 seconds at a rate of 30 μl/min. Subtracted data (flow cell 2−flow cell 1, flow cell 3−flow cell 1, or flow cell 4−flow cell 1) were analysed using BIAevaluation 3.2 Software (GE Healthcare) to identify binding using the model 1:1 binding, local Rmax and with refractive index (RI) constant 0.

human MSLN-His-Avi [2] = biological target: T3, human MSLN-His-Avi (human, UniProt Q13421 296-598, single biotin (BirA) in the biotinylated form); experiment: as above
T3 construct: Monomeric, made in HEK293-6E; Used both immobilised and in solution; also called hMSLN-His-Avi; biotinylated hMSLN-His-Avi
T3 sequence (Q13421 other isoform, or with tags, fused parts or gaps): as the sequence (Q13421 other isoform, or with tags, fused parts or gaps limits assumed) above
Experimental: as §4, §5

human MSLN-His-Avi [3] = biological target: T3, human MSLN-His-Avi; experiment: ratio of the two SPR KD
Experimental: (§6) Human MSLN-His-Avi was immobilised on flow cell 2 on a CM5 Series S BIAcore sensor chip (GE Healthcare, BR100530) using an amine coupling kit (GE Healthcare, BR10050) to approximately 200 response units (RU). Flow cell 1 was left blank for subtraction. HEK293-6E supernatants or purified proteins were adjusted with HBS-EP+(GE Healthcare) to approximately 50 nM anti-MSLN mAb per sample. Samples were injected over flow cell 1 and 2 for 2.5 min at 30 μl/min and then allowed to dissociate in HBS-EP buffer for 2.5 min. Regeneration was achieved by injecting 10 mM glycine pH 1.5 (GE Healthcare, BR100354) for 30 seconds at a rate of 30 μl/min. Subtracted data (flow cell 2−flow cell 1) were analysed using BIAevaluation 3.2 Software (GE Healthcare).
as §4
as §5, with “μl/min.” for “μl/min. Subtracted data (flow cell 2−flow cell 1, flow cell 3−flow cell 1, or flow cell 4−flow cell 1) were analysed using BIAevaluation 3.2 Software (GE Healthcare) to identify binding using the model 1:1 binding, local Rmax and with refractive index (RI) constant 0.”

[4] = biological target: T1, cell surface human mesothelin (MSLN); experiment: flow cytometry, NCI-H226 cells
Experimental: as §1, §2, §3

human MSLN-His-Avi [5] = biological target: T3, human MSLN-His-Avi; experiment: SPR (Biacore), MSLN immobilised, mAb^2 injected
Experimental: as §6, §4

Row | Binder | EC50 [1] | Emax (MFI) [1] | Kd (cynomolgus MSLN-His-Avi) | Kd (human MSLN-His-Avi [2]) | Ratio of KD in solution/immobilised for human MSLN-His-Avi (human MSLN-His-Avi [3]) | EC50 [4] | Emax (MFI) [4] | Kd (human MSLN-His-Avi [5])
1 | B1 | 2.65 nM | 702000 MFI | 886 nM | 700 nM | 5000 | 1.91 nM | 730000 MFI | 0.14 nM
2 | B2 | 3.97 nM | 745000 MFI | > 1000 nM | 615 nM | 580 | 2.72 nM | 740000 MFI | 1.1 nM
3 | B3 | 7.47 nM | 1.1e+06 MFI | 148 nM | 47.5 nM | 154 | 0.78 nM | 801000 MFI | 0.31 nM
4 | B4 | 39.4 nM | 351000 MFI | 738 nM | 889 nM | 37.5 | 15.8 nM | 276000 MFI | 23.7 nM
5 | B5 | 4.28 nM | 986000 MFI | 185 nM | 33.1 nM | 92.3 | 1.32 nM | 958000 MFI | 0.36 nM
6 | B6 | 25.7 nM | 1.23e+06 MFI | 266 nM | 5.2 nM | 78.6 | 1.46 nM | 1.01e+06 MFI | 0.07 nM
7 | B7 | 5.36 nM | 608000 MFI | – | – | – | 4.98 nM | 703000 MFI | –
8 | B8 | 3.91 nM | 654000 MFI | – | – | – | 5.3 nM | 760000 MFI | –
9 | B9 | 4.6 nM | 494000 MFI | – | – | – | 6.98 nM | 637000 MFI | –
10 | B10 | 2.72 nM | 616000 MFI | – | – | – | 3.11 nM | 771000 MFI | –
11 | B11 | 7.52 nM | 965000 MFI | 78.3 nM | 49.2 nM | 55.3 | 1.19 nM | 914000 MFI | 0.89 nM
